Test results published in US20210188909A1 (SANFORD BURNHAM PREBYS MEDICAL DISCOVERY INSTITUTE, published 2021).
Ends that are not written are not given here.

T1: recombinant 6x-His-tagged p32 protein (gC1qR/p32) (UniProt Q07021 74-282)
T1 construct: Predominantly (>97%) a trimer by sedimentation velocity; also called gC1q/p32 receptor; recombinant p32
T1 sequence (looked up): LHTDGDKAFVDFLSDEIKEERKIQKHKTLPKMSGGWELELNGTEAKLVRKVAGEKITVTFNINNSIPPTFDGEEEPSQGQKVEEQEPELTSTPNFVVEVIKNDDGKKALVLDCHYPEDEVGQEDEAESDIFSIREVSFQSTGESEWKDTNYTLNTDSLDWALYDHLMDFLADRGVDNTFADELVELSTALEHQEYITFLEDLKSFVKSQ

T2: NRP-1 (control protein in the fluorescence polarization assay) (UniProt O14786 273-586, limits assumed)
T2 construct: also called neuropilin-1
T2 sequence (looked up): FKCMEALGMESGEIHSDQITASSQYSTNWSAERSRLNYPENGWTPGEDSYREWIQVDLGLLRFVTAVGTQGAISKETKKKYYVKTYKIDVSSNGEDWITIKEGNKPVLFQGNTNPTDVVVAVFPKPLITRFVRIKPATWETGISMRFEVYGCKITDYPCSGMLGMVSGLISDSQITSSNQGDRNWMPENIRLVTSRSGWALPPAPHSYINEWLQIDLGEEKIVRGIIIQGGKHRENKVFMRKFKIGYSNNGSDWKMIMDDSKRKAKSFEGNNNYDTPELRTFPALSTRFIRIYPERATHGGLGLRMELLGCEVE

T3: ligand-binding b1b2 domain of the cell and tissue penetration receptor NRP-1 (UniProt O14786 273-586, limits assumed)
T3 construct: domain: b1b2; Coated on magnetic beads; also called NRP-1 b1b2; NRP-1 b1b2 domain
T3 sequence (looked up): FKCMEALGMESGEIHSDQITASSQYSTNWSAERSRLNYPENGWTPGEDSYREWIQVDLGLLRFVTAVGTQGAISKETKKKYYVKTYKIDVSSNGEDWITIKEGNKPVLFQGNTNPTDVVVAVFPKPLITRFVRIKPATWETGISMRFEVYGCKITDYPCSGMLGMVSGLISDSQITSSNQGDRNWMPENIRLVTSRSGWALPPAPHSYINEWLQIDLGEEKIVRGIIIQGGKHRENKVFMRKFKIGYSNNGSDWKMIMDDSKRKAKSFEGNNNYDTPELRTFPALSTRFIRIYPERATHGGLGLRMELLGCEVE

B1: T7 phage displaying SMNEVRKR (SEQ ID NO: 192) (peptide)
peptide: SMNEVRKR
notes: also called phage clone selected on NRP-1 b1b2 domain
B2: T7 phage displaying SGVSRDR (SEQ ID NO: 191) (peptide)
peptide: SGVSRDR
notes: as for B1
B3: synthetic TT1 Peptide CKRGARSTC (SEQ ID NO: 3), cyclic (peptide)
peptide: CKRGARSTC
modifications: also: cyclic (CycTT1), ring type not given here, used labeled and unlabeled, label and position not given here
notes: Free synthetic peptide used in fluorescence polarization assays; also called CycTT1; cyclic TT1 Peptide
B4: T7 phage displaying RMRRIDR (SEQ ID NO: 190) (peptide)
peptide: RMRRIDR
notes: as for B1
B5: T7 phage displaying CKRGSRSSC (SEQ ID NO: 181) (peptide)
peptide: CKRGSRSSC
modifications: not fully specified (bridges); cysteine pairing not given here; also: displayed on T7 phage
notes: also called RGXRS-displaying phage
B6: T7 phage displaying CTRGSRSKC (SEQ ID NO: 177) (peptide)
peptide: CTRGSRSKC
modifications: not fully specified (bridges); cysteine pairing not given here; also: displayed on T7 phage
notes: as for B5
B7: T7 phage displaying CKRGNRSVC (SEQ ID NO: 178) (peptide)
peptide: CKRGNRSVC
modifications: not fully specified (bridges); cysteine pairing not given here; also: displayed on T7 phage
notes: as for B5
B8: uPA-treated T7 phage displaying the TT1 peptide (peptide)
peptide: CKRGAR
modifications: not fully specified
notes: not shown: T7 phage capsid (display carrier)
B9: T7 phage displaying RKRGGRS (SEQ ID NO: 166) (peptide)
peptide: RKRGGRS
notes: as for B5
B10: T7 phage displaying CARGKRSLC (SEQ ID NO: 184) (peptide)
peptide: CARGKRSLC
modifications: not fully specified (bridges); cysteine pairing not given here; also: displayed on T7 phage
notes: as for B5
B11: T7 phage displaying the TT1 peptide CKRGARSTC (SEQ ID NO: 3) (peptide)
peptide: CKRGARSTC
notes: The phage protein it is fused to is not described; also called TT1 phage; TT phage
B12: T7 phage displaying SRLGRMR (SEQ ID NO: 193) (peptide)
peptide: SRLGRMR
notes: as for B1
B13: T7 phage displaying CQRGTRSRC (SEQ ID NO: 182) (peptide)
peptide: CQRGTRSRC
modifications: not fully specified (bridges); cysteine pairing not given here; also: displayed on T7 phage
notes: as for B5
B14: T7 phage displaying CARGARTKC (SEQ ID NO: 176) (peptide)
peptide: CARGARTKC
modifications: not fully specified (bridges); cysteine pairing not given here; also: displayed on T7 phage
notes: carries RGART rather than RGXRS
B15: T7 phage displaying GRGGRSRKLAAALE (SEQ ID NO: 161) (peptide)
peptide: GRGGRSRKLAAALE
notes: the C-terminal KLAAALE element is encoded by the phage genomic DNA; also called RGXRS-displaying phage
B16: T7 phage displaying CVRGGRARC (SEQ ID NO: 183) (peptide)
peptide: CVRGGRARC
modifications: not fully specified (bridges); cysteine pairing not given here; also: displayed on T7 phage
notes: carries RGGRA rather than RGXRS

What was measured:
[1] = molecular target: T1, recombinant 6x-His-tagged p32 protein …; experiment: T7 phage clone binding to immobilized p32 (FIG. 3)
[2] = molecular target: T2, NRP-1 (control protein in the …); experiment: fluorescence polarization assay with synthetic peptide, NRP-1 as control protein
[3] = molecular target: T3, ligand-binding b1b2 domain of the cell …; experiment: T7 phage clone binding to protein-coated magnetic beads
[4] = molecular target: T4, BSA (UniProt P02769 25-607); experiment: as above
T4 construct: Control protein on beads

[5] = molecular target: T3, ligand-binding b1b2 domain of the cell …; experiment: uPA-treated T7 phage binding to NRP-1 b1b2; reference untreated phage
[6] = molecular target: T1, recombinant 6x-His-tagged p32 protein …; experiment: T7 phage binding to immobilized p32; reference LyP-1-displaying phage

T4 sequence (P02769 25-607 limits assumed): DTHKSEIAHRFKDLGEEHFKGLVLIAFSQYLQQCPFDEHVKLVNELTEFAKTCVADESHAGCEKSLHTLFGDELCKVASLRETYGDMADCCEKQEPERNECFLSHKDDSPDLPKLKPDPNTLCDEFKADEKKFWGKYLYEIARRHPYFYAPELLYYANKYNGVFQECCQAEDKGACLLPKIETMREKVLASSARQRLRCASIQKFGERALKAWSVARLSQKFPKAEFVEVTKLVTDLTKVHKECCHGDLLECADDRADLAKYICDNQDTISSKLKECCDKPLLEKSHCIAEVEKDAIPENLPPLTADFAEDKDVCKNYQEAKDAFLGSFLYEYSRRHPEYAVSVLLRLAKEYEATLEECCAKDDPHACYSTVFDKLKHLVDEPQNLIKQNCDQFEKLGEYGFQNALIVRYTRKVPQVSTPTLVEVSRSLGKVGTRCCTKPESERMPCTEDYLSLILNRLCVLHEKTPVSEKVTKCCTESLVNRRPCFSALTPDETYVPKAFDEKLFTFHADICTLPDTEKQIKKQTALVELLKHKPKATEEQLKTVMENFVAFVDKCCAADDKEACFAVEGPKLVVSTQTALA

Binder | binding result [3] | binding result [4] | also measured
B1 | – | – | binding result [1]: no binding
B2 | – | – | binding result [1]: no binding
B3 | – | – | binding result [2]: no binding
B4 | – | – | binding result [1]: no binding
B5 | no binding | no binding | –
B6 | no binding | no binding | –
B7 | no binding | no binding | –
B8 | – | – | fold enhancement of binding [5]: 180 fold
B9 | no binding | no binding | –
B10 | no binding | no binding | –
B11 | no binding | no binding | fold stronger phage binding than the LyP-1 peptide [6]: ~15 fold
B12 | – | – | binding result [1]: no binding
B13 | no binding | no binding | –
B14 | no binding | – | –
B15 | no binding | no binding | –
B16 | no binding | – | –
